Data: the domain aggregation screens of Martell et al. (2025)

Experiment: soluble fraction after stress (log2 fold change); higher = more stays soluble; pooled small domains, quantitative proteomics
Conditions: stress: 50 degC
Method in brief: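 After stress at 50°C, the amount of each protein still soluble was measured. This was done on pooled custom libraries of small protein domains, using high-throughput quantitative proteomics. The figure given is a base-two log fold change and stands for aggregation propensity, with higher values meaning more protein stays in solution.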

First: HMENFIPDDPKRIEIGMSVLHQRFGKGKVMQLEGNLPDMKATVNFEGEGQKQLLLKYARLKIV
Second: HMKNDNIHMMASKINGIALEVGVLTPGMHPKNDLSEGEVGYIVTNLKTTREAKVGDTVTLAKKPAATPLPG
The “soluble fraction (log2)” value of the first is lower: -0.232 for the first, 0.254 for the second.

“HMLYEDVQVPNVRYWKSRDAKKQLEDLGLRVLTEHVNDAYIQSDQVIRTSPEIGDTLRTGDTVTLYVSDG” and “HMTAGTGIAYSEFRSKVQEGQVKDVAIAPDRITGTLSSGQKFSTVPVNDPGLPKMLDDFNVKYSGQA” are within 0.2 log units of each other in “soluble fraction (log2)” value: 0.185 for the first, 0.104 for the second.

“HMQDTVKNVFGAFTIFTDKPFAIGDTINVNGLEGTVVDVGMRSTQILGYDRRITSYPNYKITDSSIVNISS” and “HMVEIPEFKITTFVNTDNEQIAEFENGFTDKKAEITFNNTKYVFKEKLPDQDGIRTYVYEELHE” are within 0.2 log units of each other in “soluble fraction (log2)” value: -0.0701 for the first, 0.117 for the second.

Going from “HMMVIMRANATEPQIANVVAYVEKNGLNAHLSRGAERTVIGVVGDIRRVSKETFELMDGVDSVMRIS” to “HMSISDEDFAKLLDFVKEKWDAGELDNAEDIKAAISEGEKEFGVSLDESTRTTLASALQQLN”, the “soluble fraction (log2)” value rises from -0.356 to -0.134.

“HMFELTVGTPIRVIREPYFGKLGTVTELPAQLMVVESGTEVRVLKAKIEGEGEVLVPRANVEIIATG” and “HMSELADDPVYTALEKAADKAGLQLTVRILNDLADAVLKRGKKKLTAAQAGKVIARAESELAKSRID” are within 0.2 log units of each other in “soluble fraction (log2)” value: -0.0828 for the first, -0.0759 for the second.

First: HMFTLNEIIGQKIRNARISAGLTLDELSKMTGISAAQLSSLETGYRRANIDTLYAIAKAIGIDVSNLLKY
Second: HMADWTETELAALRRAYASGTTRVSYDGKSVDYGSAEDLLSRIRTLQGAASDVAADAVAAVDA
The “soluble fraction (log2)” value of the first is lower: -0.46 for the first, 0.0524 for the second.

First: HMATKVSSGATVRDVADLLGLSSAELIKKLMMMGEMATLTQTLTDESIKSIADEYDRKIEIVSAAE
Second: HMKGEKVTKIELSNFIKFLINDLENKGFFNPPEKKDSMIDNIYSIYNKMTLTKKELNMLWGMHKKLK
The “soluble fraction (log2)” value of the first is higher: 0.0948 for the first, -1.44 for the second.

Going from “HMGGVTVQNRETHVNSTVNVRSEQTTESERVALAYQGDAITQIESYENGWSKVEYKGLSGYVMTEYL” to “HMLSVLKNVDVNSLSDDKIKTYWQQIQKSGYTLDEVEVLAEAQGISPLKIAAFKRRVQSLQQSLQT”, the “soluble fraction (log2)” value rises from -0.181 to 0.199.

First: HMEITTEDIAAQVASWIVRLSEDLTSTDRAALQIEFEQWQQTDSRRAEIAHKMLSLIGQAEQLRKT
Second: HMPELTASDEADLKALVGGDQGFEQMANWARSNLGEEEINRFDAVVDSNNKDAIHMAIQAMQARMNA
The “soluble fraction (log2)” value of the first is lower: -0.207 for the first, 0.0174 for the second.

Compared with “HMEMELNHVARRAGRLSGFLKGELRLSTGLMNRLKWSNAILVNGKPARTNAQVEPGDRITVILD”, “HMVNPDAPAPLYIVNGKETDKNIALAIKPEDVQDVRIIKNTVALQVYGEKGKNGVVIINTKPGV” is higher in “soluble fraction (log2)” value: -0.976 for the first, 0.206 for the second.

Compared with “HMENMSFGTKLYTWLYGKLVGSDEIGNKYYTNINDPSDLNAKRWVIFNGEIEASKIPPHWHAWLHKSIDK”, “HMGGGFLVPSLVGKSLEEARSLSELRGFKLEVGDYVISSEYPAGRVTRQNPANGAKGQEGDVIKVEVSS” is higher in “soluble fraction (log2)” value: -0.646 for the first, 0.0353 for the second.

Going from “HMTFVHTQIEATKEWIISHPLDKHPAVAVVDSAGSIVIGEVDYISKSIVRLRFTAEFSGKAYL” to “HMKRVPFAFAGDMLRWAAWLYHVEKRTQNEIAEELEVSRQTVANYLSEAMSQGLVQVQLRSDIIE”, the “soluble fraction (log2)” value falls from -0.598 to -1.52.

Going from “HMKSGLLNLSTRKQEKIKQALLSEFSNVSLLEAKVANIVTLAEISRGSFYTYFEDIYDAYQWLASI” to “HMRTMFGQRLRLARKRAGLSMQALADRVTPSVSAQAISKYEADQMMPSSSVLVGLGKALGVSLDFLVGGQ”, the “soluble fraction (log2)” value falls from -0.26 to -0.536.

Compared with “HMQTMTAGERREAILRELEQAQGPVSASALAKRFHVSRQAVVGDVAMLRALNSPIAATPRGYVLTR”, “HMIERLVEFVHTLRHSGVRVSMAEAMDAAEALRHTPITERQIFKTALQSVLVKEHQDIPAFDAAFERFFL” is lower in “soluble fraction (log2)” value: -0.0845 for the first, -1.54 for the second.

Going from “HMGGQFVKVEVIAQIFGVTVRRVQQLTQEGVVKTTEIPGEGRRYELVPTIKTYIQYLSDKAY” to “HMINRPVYVPLYTNLDVKDAAEIAEKLEENNIAYKLEDQGETILVNPEQKYKVRLMLAQEGLPKG”, the “soluble fraction (log2)” value rises from -4.01 to -0.0681.

Going from “HMNLNIGNNIKNIRKSKNMTQTDFAELMGLSRSYIGDLENNRSNPSIKTLEAIARALDVPIVALIN” to “HMPHSTTDFSVSPDERQIVYSTNLQGRYDLWALDHNQGYPYPLTKKGQMSFFIKHLPGSQMILTGFD”, the “soluble fraction (log2)” value rises from -0.399 to 0.00171.

Going from “HMKLKHANGNHPLTQQEKQNMIEEAAKHYGDYMTALGFDWKQDPNSSDTPMRVAKAFVNDLAEGVY” to “HMDDPTVILFDPKNGQRKIVKWKAGLTLYSARRSAGISSAAEATIQRAGKSLSGRTATALEPGDVIRW”, the “soluble fraction (log2)” value falls from 0.0454 to -0.953.

Going from “HMPKNVEVPNVVGLSLPMAKLRLTQLGLHIVVRDSVWSETGQPNTILDQDPQPGKKIKPESTVYVKVN” to “HMSVYIGVDQAKSIAAEHAGLSNSAVTFSKAKLENDDGMTVYEVEFFYQGTEYDYKIDASTGSILEYDLDR”, the “soluble fraction (log2)” value falls from -0.0939 to -1.26.

Compared with “HMVTLYDGFLSELRKRIPRGAELTNTLVDMLYIEREAVYRRLRGEVPFTFIEVMTVSKELGISLDNLAQA”, “HMRLSVRQRMSDVLGALKTQAFVEFTQLFRPQEGRMGVTVTFSAILELLREGLIEIVQSEPFAPIHVRAGA” is higher in “soluble fraction (log2)” value: -1.23 for the first, -0.0036 for the second.

First: HMEPADALVAALVARGVSPSTARITVKQYPATRIQPQLEVFDYLVAQKDPKVSRNPPGFLLSAIRGEYA
Second: HMGAQRDFELQLIDVIRQNPGLTYKAYGEKLSVSQATVKRLVAKLKETGSIRREGSQRKGTWIITDD
The “soluble fraction (log2)” value of the first is higher: -0.188 for the first, -0.867 for the second.

Compared with “HMGDVATVKLDNNGLLNMRKSDARGADIVARIPNGTVVQVLNRETEWTQVRYDGKEGYVMSSFLQFAE”, “HMKNLNVIDLSALRTLELKESSDWTLIQKRFKLLVKKYHPDMNAGSKQYEEKLKKITLAYTHLKKLF” is lower in “soluble fraction (log2)” value: 0.199 for the first, -2.42 for the second.

Compared with “HMDIVLPFSFAKRHGVVLSERQGETELLYLKGLPVRVLAEARRVLRQEFTVRQVEQAVFDKALSESYQN”, “HMVAGPDEPLSDREQGVLDLLAEGLSNKAISKQLGISVATVKSHLSNIYGKLQAENRMQAVARARELGLM” is higher in “soluble fraction (log2)” value: -1.04 for the first, ≥ 0.62 for the second.

First: HMRTTYKTRLETLLAGPMSAGDRRFASSLLDFYNRKNRLTPGRARFVAQLEDRYSAEALAARQG
Second: HMNTELSPKVWDVVQEFILYRKEIKAPMTEHAVKLLIGQLQKLSSDPDEQIEILRQSIVNGWKGIFSLK
The “soluble fraction (log2)” value of the first is lower: -0.961 for the first, -0.183 for the second.

Going from “HMTADIRFLNSRKFYIYKVEKGETLFSISQKFNIPQEEIIQFNKDINQQGLKAKTKLWVPAYSWL” to “HMETPDLTQLNPILDEYRGQKGAVIPVLQKAQKIYGFLPPEVLRRIAAGMRVPLSKIYGVATFYSQFY”, the “soluble fraction (log2)” value rises from -3.38 to 0.0579.

“HMSQDTLIGRVGVIVIGQARTGSPAQVRVKDGFGQTHYVMAEPDSEGVLKQGEAVLLVSLEGNTFKAILNP” and “HMGGEPKALLFAGVETREMAEITQRLEAADIPYEIREDGGSIYVARSEVFNARMMLSADGLPS” are within 0.2 log units of each other in “soluble fraction (log2)” value: -0.286 for the first, -0.109 for the second.

Compared with “HMSVLEHVSGNVRRLRLQAGLSQEALARAASVSRRMLVGIESGDVNVSLSTLDRIAAALGVLFPDLVQAP”, “HMKPDWLSDGRLIPDEVMSHLRKIAVHAVEEMGYSPEDVIKILGLSRNTIYDWLKRFREHGYEGLDTKK” is higher in “soluble fraction (log2)” value: -1.52 for the first, -0.258 for the second.

Going from “HMRGLFTVYMVGEKASRVGELDEEMVYESRIGDVFALGATSWRIEEITHDRVLVSPAYGQPGRLPFWH” to “HMSSLEQVYPNPVSSILKLNSFIKNYKILNATGHEVLKGSGNTINVGKLPSGSYFLITSENYSIKFIK”, the “soluble fraction (log2)” value rises from -2.14 to -1.24.

“HMLAQISDEGAIGAVVARVLDAHPNEVARYHAGEEKVAKFLMGAAMRELRGKGDPAVVQRLLSEGLDARRV” and “HMARGRETILLVEDEPAVRGLVHATLRLHGYTVLEARHGIEALLTSTKFVGPIHLLLTDVVMPQMS” are within 0.2 log units of each other in “soluble fraction (log2)” value: 0.119 for the first, 0.182 for the second.

Compared with “HMDKWFPVSSDHKVQVGDYLRTADGLVKVEATHNEYGTFYGKIITAIHDDVVKGETYEYRIDDVQVLA”, “HMDYIITHYPDNKRFETQVDGVVAFVQYRLSGDKLDIIHTIVPPAIGGRGIAAALVKYAYDYAIENGMK” is lower in “soluble fraction (log2)” value: -0.0324 for the first, -0.76 for the second.

First: HMRTVEQFQIRKIYAISNALGISDSRADEDELHVLVSGLTGKDSIKELTYREASVVIERLEELQ
Second: HMRDYKTALQEWVQRTPGQPIAYRLVDELGPDHARVFVMEVTVGGQSAGQGRGRTKKEAEQLAARAALEKL
The “soluble fraction (log2)” value of the first is lower: -2.54 for the first, -0.0907 for the second.

First: HMLIIDLPDFTNKKLSELQQWADANQITLKIVEKDVSSKPYDTILEQTPAKNKYEKIVKGSTMTVTVNIK
Second: HMQTQVEVLVKYVLEDGTVYKEDKVSADIGAILDSGDLPMLSNDMKFIDDFLFYEVKESDNVIERKVAKLV
The “soluble fraction (log2)” value of the first is lower: -0.562 for the first, 0.114 for the second.

Compared with “HMHNSQTIIDNIKRIANEQNISLSKLAVISGLGKNTITSMTAKTNIKIETLTAIAKSLNVSIHDLTGE”, “HMTESIHVGSKVTINNNAKRWATGQNIYSGVKGKTYTVIQMNGSRLLLDKVISWINKGDVHLPGS” is lower in “soluble fraction (log2)” value: -0.0839 for the first, -1.64 for the second.

Compared with “HMATNVLEISTRNKNILIQDSLNLVESFYSKSDNQYWYKLVFKTKDDLNKFLQEVSEDENTITYKTSSI”, “HMQWLDSIRSRLRVGQTISYFEPRENASSSGLIIELRRKRVLVLEIATQKRWLIEYAAINVDG” is lower in “soluble fraction (log2)” value: 0.217 for the first, -0.373 for the second.

Going from “HMLISDENMLRDLVQAVLDENPKSVSDYKSGKTKAFGFLVGQTMKAVKGQADPMLVNKILTELLN” to “HMHEYSDIEHRILDAAREVFIRKGYDSATMGDIALLAGMSRTSVNYYFRNKERLFEAIFEEII”, the “soluble fraction (log2)” value falls from -0.0365 to -2.08.

In the case of “HMEHIVNELDRKVIDYLQSHYDAKLNDIAQGIGVSKATATKSIRKLVQTGIVHVVGSSGTGTSYNLTE”, the “soluble fraction (log2)” value is reported as -0.152.
